# Results from patent US20060134801A1, “Methods and compositions involving MDA-7” (Board of Regents, The University of Texas System, priority 2003, published 2006).
# Key:
# [1] = system: HUVEC and HMVEC; experiment: Endothelial cell proliferation assay (trypan blue); assay type: cell-based, human; conditions: 1, 5, 10, 50 ng/ml; 1 ng/ml bFGF; vs PBS
# Procedure: To test the effect of sMDA-7 protein on cell proliferation, endothelial cells (HUVEC, HMVEC) were serum-starved overnight. The next day, cells were seeded in 2-well chamber slides (1−10^4/well). The cells were allowed to adhere and spread for 4-6 h, and fresh medium containing 1 ng/ml of bFGF as a proangiogenic stimulator, and various concentrations of sMDA-7/IL-24 (1, 5, 10, and 50 ng/ml) was added. Cells treated with PBS served as controls. Cells were then harvested 3 days after treatment and cell proliferation determined by trypan blue exclusion assay method as previously described (Saeki et aL, 2000). The effect of sMDA-7 on lung tumor cell (H1299, and A549) proliferation was also evaluated. The experimental conditions were the same as described above for endothelial cells except that tumor cells were not stimulated with bFGF.
# [2] = system: HUVEC; experiment: Endothelial cell migration assay (Transwell, VEGF); assay type: cell-based, human; conditions: VEGF 100 ng/ml
# Procedure: Cell migration assays were performed using HUVEC. Cells were starved overnight in basal medium containing 0.5% fetal bovine serum, collected, resuspended in the same medium, and seeded at a concentration of 10^5 cells/well on the upper surface of a 24-well transwell insert with a pore size of 8 μm (Millipore, Cambridge, Mass.). The insert was placed in a six-well plate that contained medium plus PBS, medium plus VEGF (100 ng/ml) or VEGF plus sMDA-7 (10 or 50 ng/ml). The plates containing the transwell insert were incubated at 37° C. overnight to allow migration. The next day, the wells were disassembled, membranes were fixed in crystal violet, and the number of cells that had migrated to the lower wells was counted under high-power magnification (×40).
# [3] = system: A549 tumor xenografts; experiment: A549 xenograft tumors with 293-mda-7 cells (mixing and distant implant); assay type: in vivo, nude mice; conditions: 3 days postimplantation of 293-mda-7 cells
# Procedure: […] 293 cells and 293-mda-7 cells were first tested for their ability to form tumors. […] No tumors formed at this cell concentration, so subsequent experiments were performed using this cell number. For in vivo mixing experiments, human lung tumor cells (A549) grown to 90% confluency were trypsinized, washed, and resuspended in sterile phosphate-buffered saline at a concentration of 5×10^6/ml. The tumor-cell suspension was mixed with an equal number (5×10^6/ml) of parental 293 cells or with 293-mda-7 cells, gently vortexed, and injected subcutaneously in nude mice (10^6 cells/animal) as described above. Each group comprised of eight animals, and the experiments were done twice. Tumor growth was monitored and measured as described previously (Saeki et al., 2002). At the end of the experiment, animals were euthanized by CO2 inhalation, and tumors were harvested for histopathological analysis, western blot analysis, and for CD31 and TUNEL staining.
# To evaluate the systemic effect of sMDA-7 on tumor growth, subcutaneous tumors were established by injecting A549 tumor cells (5×10^6 cells) into the lower right flank of nude mice. […] The effect of sMDA-7 on tumor growth was monitored as described above. […]
# Tumor tissues were stained for CD31 and TUNEL as previously described (Saeki et al., 2002). […] Tissue sections were analyzed and quantitated, and the results interpreted in a blind fashion.
# [4] = system: iNOS; experiment: iNOS expression in melanoma cell lines (immunostaining of cytospins); assay type: cell-based, human; design: dose or concentration left out as unconfirmed; conditions: A375; 48 h
# Procedure: Replication-deficient human type 5 adenovirus (Ad5) carrying the mda-7 gene was obtained from Introgen Therapeutics (Houston, Tex.). The mda-7 gene was linked to an internal CMV-EE promoter and followed by SV40 polyadenylation. Ad-Luc and Ad-CMV polyadenylation (luciferase and empty vector, respectively), were used as control viruses. Cells were plated 1 day before infection. […] Experimental conditions were optimized to achieve MDA-7 protein expression by >70% of cells, based on results of immunohistochemical staining.
# […] At baseline, these melanoma cell lines express high levels of iNOS and are negative for MDA-7. Forty-eight h after vector treatment, the cells were collected, and cytospins were prepared to analyze iNOS expression. […] It has been shown previously that MDA-7 is secreted by Ad-mda7-infected melanoma cells (Lebedova et al., 2002; Mhashilkar et al., 2001).
# [5] = system: HUVECs; experiment: Clonogenic survival of endothelial cells after irradiation; assay type: cell-based, human; conditions: MDA-7 protein 10 ng/ml; angiostatin, endostatin 100 ng/ml; 12 h before irradiation
# Procedure: Twelve hours after seeding HUVECs in 4-well plates (Nunc, Roskilde, Denmark), medium was replaced with serum/growth factor-free medium. After serum/growth factor starvation for 12 hours, cells were treated with complete medium containing either MDA-7 protein (10 ng/ml) (removed from cultures of 293 cells), angiostatin (100 ng/ml), or endostatin (100 ng/ml). Twelve hours later, cells were irradiated with ^137CS unit (3.4 Gy/min) at room temperature, trypsinized and counted. Known numbers of cells were replated in 60 mm culture dishes and incubated to allow macroscopic colony development. Colonies were counted after 14 days, and the percent plating efficiency and surviving fractions following given treatments were calculated based on the survival of non-irradiated cells.
molecule,measurement,setting,value
sMDA-7: soluble secreted human MDA-7 (IL-24) protein purified from stably transfected 293-mda-7 cells (protein) AQGQEFHFGPCQVKGVVPQKLWEAFWAVKDTMQAQDNITSARLLQQEVLQNVSDAESCYLVHTLLEFYLKTVFKNYHNRTVEVRTLKSFSTLANNFVLIVSQLQPSQENEMFSIRDSAHRRFLLFRRAFKQLDVEAALTKALGEVDILLTWMQKFYKL,antiproliferative activity,[1],no significant antiproliferative activity
same,concentration giving complete inhibition of migration,[2],50 ng/mL
same,endothelial cell migration in response to VEGF,[2],inhibited endothelial cell migration significantly
same,serum level of circulating sMDA-7 by ELISA,[3],approximately 50 ng/ml
same,iNOS expression,[4],clear down-regulation
same,radiosensitization of HUVECs,[5],sensitized
